Numbered stars: 1 amine (or outer) side, 2 acyl side, 3 side chain; on linkers, the order of the positions; unused ones are H or OH. Square brackets hold non-standard residues; d marks the D form. Side chains are listed from the residue outwards. Ends that are not written are not given here. Peptide text beside a SMILES is read from it. * marks the point of attachment. C20 diacid = O=C(O)CCCCCCCCCCCCCCCCCCC(=O)*; C18 diacid = O=C(O)CCCCCCCCCCCCCCCCC(=O)*; γGlu = O=C(O)[C@H](CCC(=O)[*:2])N[*:1]; AEEA = NCCOCCOCC(=O)O; Aib = CC(C)(N)C(=O)O
T1: human GLP-2 receptor (Homo sapiens, UniProt O95838, D470N)
T1 sequence (O95838 1-553 D470N): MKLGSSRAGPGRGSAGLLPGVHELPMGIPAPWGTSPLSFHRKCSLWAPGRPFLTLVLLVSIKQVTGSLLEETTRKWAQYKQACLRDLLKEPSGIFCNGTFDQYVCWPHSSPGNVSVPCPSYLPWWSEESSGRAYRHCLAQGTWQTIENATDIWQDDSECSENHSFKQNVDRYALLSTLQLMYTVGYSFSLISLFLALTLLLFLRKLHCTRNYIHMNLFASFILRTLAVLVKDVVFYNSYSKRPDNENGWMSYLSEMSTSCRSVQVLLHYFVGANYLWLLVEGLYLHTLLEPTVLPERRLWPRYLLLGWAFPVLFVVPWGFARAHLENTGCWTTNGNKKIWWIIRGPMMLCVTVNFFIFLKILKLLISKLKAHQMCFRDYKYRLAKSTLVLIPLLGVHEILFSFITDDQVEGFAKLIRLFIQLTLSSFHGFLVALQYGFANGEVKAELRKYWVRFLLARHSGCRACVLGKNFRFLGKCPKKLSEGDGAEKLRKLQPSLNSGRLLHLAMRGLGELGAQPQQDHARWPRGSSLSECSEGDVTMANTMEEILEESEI

T2: human GLP-2 receptor (hGLP2-R) (human, UniProt O95838)
T2 sequence: T1 sequence (O95838 1-553 D470N)

B1: reference compound A (peptide)
chain: H[Aib]DGSFSSELATILDK([γGlu-C18 diacid])QAARDFIAWLIQHKITD
modifications: ends and bridges not checked
B2: reference compound B (peptide)
chain: H[Aib]EGSFSSELATILDK([γGlu-C18 diacid])QAARDFIAWLIQHKITD
modifications: ends and bridges not checked
B3: Compound 44 (peptide)
peptide: H-H[Aib]EGSFTSELATILEGK([AEEA-AEEA-γGlu-C20 diacid])AARDFIAWLIEHKITD-OH
SMILES: CC[C@H](C)[C@H](NC(=O)[C@H](Cc1ccccc1)NC(=O)[C@H](CC(=O)O)NC(=O)[C@H](CCCNC(=N)N)NC(=O)[C@H](C)NC(=O)[C@H](C)NC(=O)[C@H](CCCCNC(=O)COCCOCCNC(=O)COCCOCCNC(=O)CC[C@H](NC(=O)CCCCCCCCCCCCCCCCCCC(=O)O)C(=O)O)NC(=O)CNC(=O)[C@H](CCC(=O)O)NC(=O)[C@H](CC(C)C)NC(=O)[C@@H](NC(=O)[C@@H](NC(=O)[C@H](C)NC(=O)[C@H](CC(C)C)NC(=O)[C@H](CCC(=O)O)NC(=O)[C@H](CO)NC(=O)[C@@H](NC(=O)[C@H](Cc1ccccc1)NC(=O)[C@H](CO)NC(=O)CNC(=O)[C@H](CCC(=O)O)NC(=O)C(C)(C)NC(=O)[C@@H](N)Cc1c[nH]cn1)[C@@H](C)O)[C@@H](C)O)[C@@H](C)CC)C(=O)N[C@@H](C)C(=O)N[C@@H](Cc1c[nH]c2ccccc12)C(=O)N[C@@H](CC(C)C)C(=O)N[C@H](C(=O)N[C@@H](CCC(=O)O)C(=O)N[C@@H](Cc1c[nH]cn1)C(=O)N[C@@H](CCCCN)C(=O)N[C@H](C(=O)N[C@H](C(=O)N[C@@H](CC(=O)O)C(=O)O)[C@@H](C)O)[C@@H](C)CC)[C@@H](C)CC
B4: Compound 45 (peptide)
peptide: H-H[Aib]EGSFTSELATILDEQAAK([AEEA-AEEA-γGlu-C20 diacid])DFIAWLIEHKITD-OH
B5: Compound 46 (peptide)
peptide: H-H[Aib]EGTFTSELATILDEQAAK([AEEA-AEEA-γGlu-C20 diacid])DFIAWLIEHKITD-OH
SMILES: CC[C@H](C)[C@H](NC(=O)[C@H](Cc1ccccc1)NC(=O)[C@H](CC(=O)O)NC(=O)[C@H](CCCCNC(=O)COCCOCCNC(=O)COCCOCCNC(=O)CC[C@H](NC(=O)CCCCCCCCCCCCCCCCCCC(=O)O)C(=O)O)NC(=O)[C@H](C)NC(=O)[C@H](C)NC(=O)[C@H](CCC(N)=O)NC(=O)[C@H](CCC(=O)O)NC(=O)[C@H](CC(=O)O)NC(=O)[C@H](CC(C)C)NC(=O)[C@@H](NC(=O)[C@@H](NC(=O)[C@H](C)NC(=O)[C@H](CC(C)C)NC(=O)[C@H](CCC(=O)O)NC(=O)[C@H](CO)NC(=O)[C@@H](NC(=O)[C@H](Cc1ccccc1)NC(=O)[C@@H](NC(=O)CNC(=O)[C@H](CCC(=O)O)NC(=O)C(C)(C)NC(=O)[C@@H](N)Cc1c[nH]cn1)[C@@H](C)O)[C@@H](C)O)[C@@H](C)O)[C@@H](C)CC)C(=O)N[C@@H](C)C(=O)N[C@@H](Cc1c[nH]c2ccccc12)C(=O)N[C@@H](CC(C)C)C(=O)N[C@H](C(=O)N[C@@H](CCC(=O)O)C(=O)N[C@@H](Cc1c[nH]cn1)C(=O)N[C@@H](CCCCN)C(=O)N[C@H](C(=O)N[C@H](C(=O)N[C@@H](CC(=O)O)C(=O)O)[C@@H](C)O)[C@@H](C)CC)[C@@H](C)CC

Columns and labels:
human GLP-1 receptor = target: T3, human GLP-1 receptor (Homo sapiens, UniProt P43220); assay: GLP-1 receptor potency assay (cAMP AlphaScreen); format: cell-based; conditions: HEK293 cells expressing human GLP-1R, cAMP response
T3 construct: expressed in transfected cells
T3 sequence (P43220 24-463): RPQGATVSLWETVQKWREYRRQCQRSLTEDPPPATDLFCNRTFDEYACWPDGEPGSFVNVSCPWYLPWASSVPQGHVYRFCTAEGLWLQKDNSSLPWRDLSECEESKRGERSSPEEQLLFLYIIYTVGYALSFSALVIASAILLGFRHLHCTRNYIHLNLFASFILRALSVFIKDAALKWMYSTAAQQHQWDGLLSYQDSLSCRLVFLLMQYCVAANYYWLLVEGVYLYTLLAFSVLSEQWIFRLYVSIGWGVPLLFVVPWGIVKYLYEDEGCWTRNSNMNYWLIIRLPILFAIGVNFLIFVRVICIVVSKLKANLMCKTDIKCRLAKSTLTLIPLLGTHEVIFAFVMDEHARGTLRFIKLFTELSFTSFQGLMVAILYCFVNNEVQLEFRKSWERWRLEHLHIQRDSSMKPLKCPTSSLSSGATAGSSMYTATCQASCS
Source text: The cDNA encoding the human glucagon-like peptide 1 receptor (GLP-1R) (primary accession number P43220) was cloned from the cDNA BC112126(MGC:138331/IMAGE:8327594). The DNA encoding the GLP-1-R was amplified by PCR using primers encoding terminal restriction sites for subcloning. The 5′-end primers additionally encoded a near Kozak consensus sequence to ensure efficient translation. The fidelity of the DNA encoding the GLP-1-R was confirmed by DNA sequencing. The PCR products encoding the GLP-1-R were subcloned into a mammalian expression vector containing a neomycin (G418) resistance marker. The mammalian expression vectors encoding the GLP-1-R were transfected into HEK293 cells by a standard calcium phosphate transfection method. 48 hours post- transfection, cells were seeded for limited dilution cloning and selected with 1 mg/ml G418 in the culture medium. Following 3 weeks in G418 selection clones were picked and tested in a functional GLP-1 receptor potency assay as described below. One clone was selected for use in compound profiling.
GLP-1R and GLP-2 receptor potency assays.
The cAMP AlphaScreen® assay from Perkin Elmer was used to quantitate the cAMP response to activation of the GLP1 and GLP2 receptor, respectively. […]

human GLP-2 receptor = target: T1, human GLP-2 receptor; assay: GLP-2 receptor potency assay (cAMP AlphaScreen); format: cell-based; conditions: HEK293 cells expressing human GLP-2R, cAMP response; N/A = no detectable activity
Source text: The hGLP2-R was purchased from MRC-geneservice, Babraham, Cambridge as an Image clone: 5363415 (11924-117). For subcloning into a mammalian expression vector, primers for subcloning were obtained from DNA-Technology, Risskov, Denmark. The 5′ and 3′ primers used for the PCR reaction include terminal restriction sites for cloning and the context of the 5′ primer is modified to a Kozak consensus without changing the sequence of the product encoded by the ORF. A standard PCR reaction was run using Image clone 5363415 (11924-117) as a template with the above mentioned primers and Polymerase Herculase II Fusion in a total vol. of 50 μl. The generated PCR product was purified using GFX PCR and Gel band purification kit, digested with restriction enzymes and cloned into the mammalian expression vector using Rapid DNA Ligation Kit. Ligation reaction was transformed to XL10 Gold Ultracompetent cells and colonies were picked for DNA production using Endofree Plasmid maxi kit. Subsequent sequence analysis was conducted by MWG Eurofins, Germany.
HEK293 cells were transfected using the Lipofectamine PLUS transfection method. The day before transfection, HEK293 cells were seeded in two T75 flasks at a density of 2×10^6 cells/T75 flask in cell culturing medium without antibiotics. […] Following 4 weeks in G418 selection, clones were picked and tested in a functional GLP-2 receptor potency assay as described below.
Data from test compounds eliciting an increase in the intracellular level of cAMP were normalized relative to the positive and negative control (vehicle) to calculate the EC50 and maximal response from the concentration response curve.

[1] = target: human GLP-2 receptor (hGLP2-R) (human) (UniProt O95838)
[2] = target: human glucagon-like peptide 1 receptor (GLP-1R) (human) (UniProt P43220)
Sequence of human glucagon-like peptide 1 receptor (GLP-1R) (human) (P43220 24-463): as above

[3] = target: human glucagon-like peptide 1 receptor (GLP-1R) (human, UniProt P43220); assay: cell-based or functional assay
[4] = target: T2, human GLP-2 receptor (hGLP2-R); assay: cell-based or functional assay

Row | Molecule | EC50 (human GLP-2 receptor) | EC50 GLP-1 (nM), cAMP AlphaScreen [3] | EC50 GLP-2 (nM), cAMP AlphaScreen [4] | other results
1 | CC[C@H](C)[C@H](NC(=O)[C@H](Cc1ccccc1)NC(=O)[C@H](CC(=O)O)NC(=O)[C@H](CCCNC(=N)N)NC(=O)[C@H](C)NC(=O)[C@H](C)NC(=O)[C@H](CCCCNC(=O)COCCOCCNC(=O)COCCOCCNC(=O)[C@H](CCCCN)NC(=O)[C@H](CCC(=O)O)NC(=O)[C@H](CCCCN)NC(=O)CC[C@H](NC(=O)CCCCCCCCCCCCCCCCCCC(=O)O)C(=O)O)NC(=O)[C@H](C)NC(=O)[C@H](CC(=O)O)NC(=O)[C@H](CC(C)C)NC(=O)[C@@H](NC(=O)[C@@H](NC(=O)[C@H](C)NC(=O)[C@H](CC(C)C)NC(=O)[C@H](CCC(=O)O)NC(=O)[C@H](CO)NC(=O)[C@@H](NC(=O)[C@H](Cc1ccccc1)NC(=O)[C@H](CO)NC(=O)CNC(=O)[C@H](CCC(=O)O)NC(=O)C(C)(C)NC(=O)[C@@H](N)Cc1c[nH]cn1)[C@@H](C)O)[C@@H](C)O)[C@@H](C)CC)C(=O)N[C@@H](C)C(=O)N[C@@H](Cc1c[nH]c2ccccc12)C(=O)N[C@@H](CC(C)C)C(=O)N[C@H](C(=O)N[C@@H](CCC(=O)O)C(=O)N[C@@H](Cc1c[nH]cn1)C(=O)N[C@@H](CCCCN)C(=O)N[C@H](C(=O)N[C@H](C(=O)N[C@@H](CC(=O)O)C(=O)O)[C@@H](C)O)[C@@H](C)CC)[C@@H](C)CC [Compound 63] (H-H[Aib]EGSFTSELATILDAK([AEEA-AEEA-Lys-Glu-Lys-γGlu-C20 diacid])AARDFIAWLIEHKITD-OH) | 0.17 nM |  |  | EC50 (human GLP-1 receptor): 0.31 nM
2 | CC[C@H](C)[C@H](NC(=O)[C@H](Cc1ccccc1)NC(=O)[C@H](CC(=O)O)NC(=O)[C@H](CCCNC(=N)N)NC(=O)[C@H](C)NC(=O)[C@H](C)NC(=O)[C@H](CCC(N)=O)NC(=O)[C@H](CCC(=O)O)NC(=O)[C@H](CC(=O)O)NC(=O)[C@H](CC(C)C)NC(=O)[C@@H](NC(=O)[C@@H](NC(=O)[C@H](C)NC(=O)[C@H](CCCCNC(=O)COCCOCCNC(=O)[C@H](CCCCN)NC(=O)[C@H](CCC(=O)O)NC(=O)[C@H](CCCCN)NC(=O)CC[C@H](NC(=O)CCCCCCCCCCCCCCCCCCC(=O)O)C(=O)O)NC(=O)[C@H](CCC(=O)O)NC(=O)[C@H](CO)NC(=O)[C@@H](NC(=O)[C@H](Cc1ccccc1)NC(=O)[C@H](CO)NC(=O)CNC(=O)[C@H](CCC(=O)O)NC(=O)C(C)(C)NC(=O)[C@@H](N)Cc1c[nH]cn1)[C@@H](C)O)[C@@H](C)O)[C@@H](C)CC)C(=O)N[C@@H](C)C(=O)N[C@@H](Cc1c[nH]c2ccccc12)C(=O)N[C@@H](CC(C)C)C(=O)N[C@H](C(=O)N[C@@H](CCC(=O)O)C(=O)N[C@@H](Cc1c[nH]cn1)C(=O)N[C@@H](CCCCN)C(=O)N[C@H](C(=O)N[C@H](C(=O)N[C@@H](CC(=O)O)C(=O)O)[C@@H](C)O)[C@@H](C)CC)[C@@H](C)CC [Compound 53] (H-H[Aib]EGSFTSEK([AEEA-Lys-Glu-Lys-γGlu-C20 diacid])ATILDEQAARDFIAWLIEHKITD-OH) | 0.24 nM |  |  | 
3 | CC[C@H](C)[C@H](NC(=O)[C@H](Cc1ccccc1)NC(=O)[C@H](CC(=O)O)NC(=O)[C@H](CCCCNC(=O)COCCOCCNC(=O)[C@H](CCCCN)NC(=O)[C@H](CCC(=O)O)NC(=O)[C@H](CCCCN)NC(=O)CC[C@H](NC(=O)CCCCCCCCCCCCCCCCCCC(=O)O)C(=O)O)NC(=O)[C@H](C)NC(=O)[C@H](C)NC(=O)[C@H](CCC(N)=O)NC(=O)[C@H](CCC(=O)O)NC(=O)[C@H](CC(=O)O)NC(=O)[C@H](CC(C)C)NC(=O)[C@@H](NC(=O)[C@@H](NC(=O)[C@H](C)NC(=O)[C@H](CC(C)C)NC(=O)[C@H](CCC(=O)O)NC(=O)[C@H](CO)NC(=O)[C@@H](NC(=O)[C@H](Cc1ccccc1)NC(=O)[C@H](CO)NC(=O)CNC(=O)[C@H](CCC(=O)O)NC(=O)C(C)(C)NC(=O)[C@@H](N)Cc1c[nH]cn1)[C@@H](C)O)[C@@H](C)O)[C@@H](C)CC)C(=O)N[C@@H](C)C(=O)N[C@@H](Cc1c[nH]c2ccccc12)C(=O)N[C@@H](CC(C)C)C(=O)N[C@H](C(=O)N[C@@H](CCC(=O)O)C(=O)N[C@@H](Cc1c[nH]cn1)C(=O)N[C@@H](CCCCN)C(=O)N[C@H](C(=O)N[C@H](C(=O)N[C@@H](CC(=O)O)C(=O)O)[C@@H](C)O)[C@@H](C)CC)[C@@H](C)CC [Compound 64] (H-H[Aib]EGSFTSELATILDEQAAK([AEEA-Lys-Glu-Lys-γGlu-C20 diacid])DFIAWLIEHKITD-OH) | 0.2 nM |  |  | EC50 (human GLP-1 receptor): 0.49 nM
4 | B1 |  |  |  | EC50 GLP-2 (nM), cAMP AlphaScreen [1]: 0.083 nM; EC50 GLP-1 (nM), cAMP AlphaScreen [2]: 0.49 nM
5 | B2 |  |  |  | EC50 GLP-2 (nM), cAMP AlphaScreen [1]: 0.28 nM; EC50 GLP-1 (nM), cAMP AlphaScreen [2]: 3.9 nM
6 | B3 |  | 0.063 nM | 0.14 nM | 
7 | B4 |  | 1.4 nM | 0.36 nM | 
8 | B5 |  | 0.26 nM | 0.38 nM | 

Reference: patent US20250073311A1, “DOSAGE REGIME” (ZEALAND PHARMA A/S, priority 2021, published 2025)
